{"source": "patent US20120316071A1", "about": "(published 2012)", "key": {"[1]": {"target": "T1, rHuman IGF-1 sR (insulin-like growth factor-1 soluble receptor), CF (R&D Systems Cat#391-GR) (human, UniProt P08069 31-932)", "T1 construct": "Bought recombinant soluble receptor", "assay": "ECL multispot (MSD), antigen spotted on plate, Fab at 500.00 (column head: Fab [µM])"}, "[2]": {"target": "T2, rHuman ErbB2/Fc Chimera, CF (R&D Systems Cat#1129-ER) (human, UniProt P04626 23-652)", "T2 construct": "Bought recombinant protein; Fc part of the bought chimera not given", "assay": "ECL multispot (MSD), antigen spotted on plate, Fab at 500.00 (column head: Fab [µM])"}, "[3]": {"target": "T3, rHuman CD44/Fc Chimera, CF (R&D Systems Cat#3660-CD) (human, UniProt P16070 21-220)", "T3 construct": "Bought recombinant protein; Fc part of the bought chimera not given", "assay": "ECL multispot (MSD), antigen spotted on plate, Fab at 500.00 (column head: Fab [µM])"}, "[4]": {"target": "T4, rHuman HGF R/c-MET/Fc Chimera, CF (R&D Systems Cat#358-MT/CF) (human, UniProt P08581 25-932)", "T4 construct": "Bought recombinant protein; also called HGF R/Fc; Fc part of the bought chimera not given", "T4 sequence (P08581 25-932, change not shown)": "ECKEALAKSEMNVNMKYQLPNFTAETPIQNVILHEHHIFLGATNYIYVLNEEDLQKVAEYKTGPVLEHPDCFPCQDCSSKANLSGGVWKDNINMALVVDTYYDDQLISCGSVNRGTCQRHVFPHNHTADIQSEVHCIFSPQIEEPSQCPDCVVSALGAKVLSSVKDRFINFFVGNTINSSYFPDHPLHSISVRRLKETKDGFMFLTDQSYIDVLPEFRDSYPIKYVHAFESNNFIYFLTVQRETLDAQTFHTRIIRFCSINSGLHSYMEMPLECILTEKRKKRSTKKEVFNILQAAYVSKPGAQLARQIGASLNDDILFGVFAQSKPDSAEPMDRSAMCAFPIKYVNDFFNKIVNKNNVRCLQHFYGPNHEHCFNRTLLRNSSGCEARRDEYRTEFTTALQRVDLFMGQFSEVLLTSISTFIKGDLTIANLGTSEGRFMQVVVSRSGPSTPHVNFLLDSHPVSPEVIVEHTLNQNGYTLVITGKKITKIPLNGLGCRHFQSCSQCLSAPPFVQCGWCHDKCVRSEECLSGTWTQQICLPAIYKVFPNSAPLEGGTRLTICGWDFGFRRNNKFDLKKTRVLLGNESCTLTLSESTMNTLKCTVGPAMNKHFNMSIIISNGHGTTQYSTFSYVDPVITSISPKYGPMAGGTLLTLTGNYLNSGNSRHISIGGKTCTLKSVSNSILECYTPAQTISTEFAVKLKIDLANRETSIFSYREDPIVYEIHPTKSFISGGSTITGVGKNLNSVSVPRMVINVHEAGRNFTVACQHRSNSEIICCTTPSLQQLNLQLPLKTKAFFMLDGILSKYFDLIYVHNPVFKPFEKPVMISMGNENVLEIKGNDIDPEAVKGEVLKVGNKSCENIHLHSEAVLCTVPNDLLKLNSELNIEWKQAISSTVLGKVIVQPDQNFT", "assay": "ECL multispot (MSD), antigen spotted on plate, Fab at 500.00 (column head: Fab [µM])"}, "[5]": {"target": "T5, Recombinant Human DLL4 (R&D Systems Cat#1506-D4/CF) (human, UniProt Q9NR61 27-524)", "T5 construct": "Bought recombinant protein; also called delta-like protein 4; rHuman DLL4", "assay": "ECL multispot (MSD), antigen spotted on plate, Fab at 500.00 (column head: Fab [µM])"}, "[6]": {"target": "T6, rHuman Notch-1/Fc Chimera, CF (R&D Systems Cat#3647-TK) (human, UniProt P46531 19-526)", "T6 construct": "Bought recombinant chimera; Fc part of the bought chimera not given", "assay": "ECL multispot (MSD), antigen spotted on plate, Fab at 500.00 (column head: Fab [µM])"}, "[7]": {"target": "T7, rHuman EGF R/Fc Chimera, CF (R&D Systems Cat#344-ER) (human, UniProt P00533 25-645)", "T7 construct": "Bought recombinant protein; Fc part of the bought chimera not given", "assay": "ECL multispot (MSD), antigen spotted on plate, Fab at 500.00 (column head: Fab [µM])"}, "[8]": {"target": "T8, rHuman P-Cadherin/Fc Chimera, CF (R&D Systems Cat#861-PC) (human, UniProt P22223 108-654)", "T8 construct": "Bought recombinant protein; Fc part of the bought chimera not given", "assay": "ECL multispot (MSD), antigen spotted on plate, Fab at 500.00 (column head: Fab [µM])"}, "[9]": {"target": "T1, rHuman IGF-1 sR (insulin-like growth …)", "assay": "ECL multispot (MSD), antigen spotted on plate, Fab at 0.50 (column head: Fab [µM])"}, "[10]": {"target": "T2, rHuman ErbB2/Fc Chimera, CF (R&D …)", "assay": "ECL multispot (MSD), antigen spotted on plate, Fab at 0.50 (column head: Fab [µM])"}, "[11]": {"target": "T3, rHuman CD44/Fc Chimera, CF (R&D Systems …)", "assay": "ECL multispot (MSD), antigen spotted on plate, Fab at 0.50 (column head: Fab [µM])"}, "[12]": {"target": "T4, rHuman HGF R/c-MET/Fc Chimera, CF (R&D …)", "assay": "ECL multispot (MSD), antigen spotted on plate, Fab at 0.50 (column head: Fab [µM])"}, "[13]": {"target": "T9, rHuman Erythropoietin R/Fc Chimera, CF (R&D Systems Cat#963-ER) (human, UniProt P19235 25-250)", "T9 construct": "Bought recombinant protein; also called EPO R; EPO R/Fc; Fc part of the bought chimera not given", "T9 sequence (looked up)": "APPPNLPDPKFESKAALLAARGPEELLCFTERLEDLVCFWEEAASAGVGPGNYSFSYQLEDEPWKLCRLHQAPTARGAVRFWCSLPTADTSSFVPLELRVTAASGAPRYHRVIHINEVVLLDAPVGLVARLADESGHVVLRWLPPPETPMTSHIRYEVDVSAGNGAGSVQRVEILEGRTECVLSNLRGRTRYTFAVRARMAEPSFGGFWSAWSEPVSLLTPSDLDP", "assay": "ECL multispot (MSD), antigen spotted on plate, Fab at 0.50 (column head: Fab [µM])"}, "[14]": {"target": "T5, Recombinant Human DLL4 (R&D Systems …)", "assay": "ECL multispot (MSD), antigen spotted on plate, Fab at 0.50 (column head: Fab [µM])"}, "[15]": {"target": "T6, rHuman Notch-1/Fc Chimera, CF (R&D …)", "assay": "ECL multispot (MSD), antigen spotted on plate, Fab at 0.50 (column head: Fab [µM])"}, "[16]": {"target": "T7, rHuman EGF R/Fc Chimera, CF (R&D …)", "assay": "ECL multispot (MSD), antigen spotted on plate, Fab at 0.50 (column head: Fab [µM])"}, "[17]": {"target": "T8, rHuman P-Cadherin/Fc Chimera, CF (R&D …)", "assay": "ECL multispot (MSD), antigen spotted on plate, Fab at 0.50 (column head: Fab [µM])"}, "[18]": {"target": "T10, rHuman Erythropoietin R/Fc Chimera, CF (R&D Systems Cat#963-ER) (human, UniProt P19235 25-250)", "T10 construct": "Bought reagent; also called EPO R/Fc; Epo R", "T10 sequence (looked up)": "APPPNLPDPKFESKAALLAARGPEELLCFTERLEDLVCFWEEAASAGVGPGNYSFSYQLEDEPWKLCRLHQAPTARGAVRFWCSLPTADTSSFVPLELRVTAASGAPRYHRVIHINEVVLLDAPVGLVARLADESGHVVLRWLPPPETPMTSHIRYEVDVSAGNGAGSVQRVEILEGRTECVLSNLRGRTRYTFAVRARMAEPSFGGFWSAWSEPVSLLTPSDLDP", "assay": "MSD multispot ECL, antigen spotted, Fab 9.3 nM; blank spot 287"}, "[19]": {"target": "T11, rHuman ErbB2/Fc Chimera, CF (R&D Systems Cat#1129-ER) (human, UniProt P04626 23-652)", "T11 construct": "Bought reagent; also called human epidermal growth factor 2 receptor", "assay": "MSD multispot ECL, antigen spotted, Fab 9.3 nM; blank spot 287"}}, "data": [{"binder": "Fab VH1-46_IGHD6-6*01_IGHJ1*01 & L6_IGKJ1*01 (Fab, V domains shown, Tested as a Fab expressed in E. coli; The heavy chain came from Plasmid A (CH1 with His6 and Flag tags) and the kappa light chain from Plasmid C (kappa CL); also called Wt; wildtype) VH: QVQLVQSGAEVKKPGASVKVSCKASGYTFTSYYMHWVRQAPGQGLEWMGIINPSGGSTSYAQKFQGRVTMTRDTSTSTVYMELSSLRSEDTAVYYCAREEYSSSSAEYFQHWGQGTLVTVSS VL: not shown", "values": [{"measurement": "signal/noise ratio (ECL)", "setting": "[1]", "value": 0.4}, {"measurement": "signal/noise ratio (ECL)", "setting": "[2]", "value": 0.3}, {"measurement": "signal/noise ratio (ECL)", "setting": "[3]", "value": 0.4}, {"measurement": "signal/noise ratio (ECL)", "setting": "[4]", "value": 0.3}, {"measurement": "signal/noise ratio (ECL)", "setting": "[5]", "value": 16.2}, {"measurement": "signal/noise ratio (ECL)", "setting": "[6]", "value": 0.8}, {"measurement": "signal/noise ratio (ECL)", "setting": "[7]", "value": 0.7}, {"measurement": "signal/noise ratio (ECL)", "setting": "[8]", "value": 0.2}, {"measurement": "signal/noise ratio (ECL)", "setting": "[9]", "value": 1.2}, {"measurement": "signal/noise ratio (ECL)", "setting": "[10]", "value": 1}, {"measurement": "signal/noise ratio (ECL)", "setting": "[11]", "value": 1}, {"measurement": "signal/noise ratio (ECL)", "setting": "[12]", "value": 0.6}, {"measurement": "signal/noise ratio (ECL)", "setting": "[13]", "value": 0.9}, {"measurement": "signal/noise ratio (ECL)", "setting": "[14]", "value": 2.9}, {"measurement": "signal/noise ratio (ECL)", "setting": "[15]", "value": 2}, {"measurement": "signal/noise ratio (ECL)", "setting": "[16]", "value": 1.4}, {"measurement": "signal/noise ratio (ECL)", "setting": "[17]", "value": 1.3}]}, {"binder": "Fab VH1-46_IGHD6-6*01_IGHJ1*01 & L6_IGKJ1*01 (Fab, V domains shown, Only variable domains are tied to the molecule; Tested as a Fab made in E. coli: heavy chain from Plasmid A (CH1 constant region, His6 and Flag tags), kappa light chain from Plasmid C (kappa CL); also called parent Hit Fab against DLL4; VH1-46_IGHD6-6*01_IGHJ1*01 & L6_IGKJ1*01 (parental)) VH: QVQLVQSGAEVKKPGASVKVSCKASGYTFTSYYMHWVRQAPGQGLEWMGIINPSGGSTSYAQKFQGRVTMTRDTSTSTVYMELSSLRSEDTAVYYCAREEYSSSSAEYFQHWGQGTLVTVSS VL: not shown", "values": [{"measurement": "ECL signal", "setting": "[18]", "value": 306, "unit": "ECL signal"}, {"measurement": "ECL signal", "setting": "[19]", "value": 354, "unit": "ECL signal"}]}, {"binder": "Fab VH1-46_IGHD6-6*01_IGHJ1*01 S102A/S103P/S104F (APF) & L6_IGKJ1*01 (Fab, V domains shown, Tested as a Fab expressed in E. coli; the constant parts (CH1 with His6/Flag tags, kappa CL) come from Plasmids A and C; also called APF triple mutant; H:APF & L:wt) VH: QVQLVQSGAEVKKPGASVKVSCKASGYTFTSYYMHWVRQAPGQGLEWMGIINPSGGSTSYAQKFQGRVTMTRDTSTSTVYMELSSLRSEDTAVYYCAREEYAPFSAEYFQHWGQGTLVTVSS VL: not shown", "values": [{"measurement": "signal/noise ratio (ECL)", "setting": "[1]", "value": 1.5}, {"measurement": "signal/noise ratio (ECL)", "setting": "[2]", "value": 1.7}, {"measurement": "signal/noise ratio (ECL)", "setting": "[3]", "value": 2.4}, {"measurement": "signal/noise ratio (ECL)", "setting": "[4]", "value": 2.2}, {"measurement": "signal/noise ratio (ECL)", "setting": "[5]", "value": 181}, {"measurement": "signal/noise ratio (ECL)", "setting": "[6]", "value": 4.2}, {"measurement": "signal/noise ratio (ECL)", "setting": "[7]", "value": 5.5}, {"measurement": "signal/noise ratio (ECL)", "setting": "[8]", "value": 3.4}, {"measurement": "signal/noise ratio (ECL)", "setting": "[9]", "value": 1.3}, {"measurement": "signal/noise ratio (ECL)", "setting": "[10]", "value": 1}, {"measurement": "signal/noise ratio (ECL)", "setting": "[11]", "value": 1}, {"measurement": "signal/noise ratio (ECL)", "setting": "[12]", "value": 0.8}, {"measurement": "signal/noise ratio (ECL)", "setting": "[13]", "value": 0.9}, {"measurement": "signal/noise ratio (ECL)", "setting": "[14]", "value": 34.5}, {"measurement": "signal/noise ratio (ECL)", "setting": "[15]", "value": 1.4}, {"measurement": "signal/noise ratio (ECL)", "setting": "[16]", "value": 1.1}, {"measurement": "signal/noise ratio (ECL)", "setting": "[17]", "value": 0.8}]}]}
